What all share (assay): SPR
For test [1], the target named is Recombinant HIV-1 gp120 SF162 (Clade B) (HIV-1 SF162 (Clade B)).
Test [2] deals with Recombinant HIV-1 gp120 ZM53M.PB12 (HIV-1 ZM53M.PB12 (Clade C)).
Test [3] concerns the target Human IgG1κ isotype control (human).

Fold increase in affinity compared to AH and Kd data for four substances are collected here from paper PMC6839005.

On to “AvFc (lectibody: Avaren fused to the Fc region of human IgG1) (from UniProt Q9KWN0 47-160) (Fc fusion)”, for which the fold increase in affinity compared to AH in test [1] and in test [2] was 10 fold in each case.

Usually Kd stands for the free concentration of one partner at which half of the binding sites on the other are occupied at equilibrium, for simple one-to-one binding. A lower Kd goes with higher affinity. In test [3], “Neonatal Fc receptor (FcRn) (from UniProt P55899 24-365)” registered an equilibrium dissociation constant (Kd) of 18 nM.

Turning to “Recombinant human Fc gamma receptor IA (FcγRI, CD64) (from UniProt P12314 16-374)”, in test [3], the Kd is 0.11 nM.

Take “Recombinant human Fc gamma receptor IIIA (FcγRIIIa, CD16) (from UniProt P08637 17-254)”: the Kd in test [3] was 680 nM.
